Measurements published in paper PMC8726603.
pKd: −log10 of the molar value.

Molecular target: SUMO-tagged CGAS (human) (UniProt Q8N884)
Assay: SPR

UniProt Q8N884, sequence (Q8N884 whole entry): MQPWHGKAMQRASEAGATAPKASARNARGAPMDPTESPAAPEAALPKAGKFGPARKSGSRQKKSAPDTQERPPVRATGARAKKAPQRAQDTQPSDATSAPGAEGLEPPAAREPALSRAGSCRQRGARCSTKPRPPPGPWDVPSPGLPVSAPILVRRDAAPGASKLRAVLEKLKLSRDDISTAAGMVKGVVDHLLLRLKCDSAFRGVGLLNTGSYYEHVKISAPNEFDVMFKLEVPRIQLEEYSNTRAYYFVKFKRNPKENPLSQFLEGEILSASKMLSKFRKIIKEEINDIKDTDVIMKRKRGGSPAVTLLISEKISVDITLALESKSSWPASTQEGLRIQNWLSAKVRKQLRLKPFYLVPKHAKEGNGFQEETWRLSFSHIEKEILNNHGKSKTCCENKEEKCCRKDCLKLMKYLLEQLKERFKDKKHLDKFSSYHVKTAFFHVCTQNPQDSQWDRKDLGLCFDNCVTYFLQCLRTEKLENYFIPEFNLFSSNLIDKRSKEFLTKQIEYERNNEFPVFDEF

Substance: His-tagged LC3B (from UniProt Q9GZQ8 1-120) (natural protein; other documents disagree on this pair)
- pKd: 6.77
